We go through ten molecules from patent US20100022006, “GAMMA SATELLITE INSULATOR SEQUENCES AND THEIR USE IN PREVENTING GENE SILENCING” (THE GOVT. OF THE USA AS REPRESENTED BY THE SECRETA, published 2010).

The target in data set [1] is T1, CTCF 11 ZF DNA binding domain (UniProt P49711 P49711:266-577).
T1 sequence: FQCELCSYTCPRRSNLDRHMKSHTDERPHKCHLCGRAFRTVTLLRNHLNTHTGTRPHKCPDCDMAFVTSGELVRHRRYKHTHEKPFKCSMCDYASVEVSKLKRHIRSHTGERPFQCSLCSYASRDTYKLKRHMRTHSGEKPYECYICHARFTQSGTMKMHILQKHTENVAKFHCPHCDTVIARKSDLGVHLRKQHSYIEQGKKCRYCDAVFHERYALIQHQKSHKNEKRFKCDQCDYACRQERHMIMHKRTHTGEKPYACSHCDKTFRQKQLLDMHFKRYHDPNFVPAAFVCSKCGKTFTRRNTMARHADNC
In words: EMSA; among strongest binding. Particulars: tags: pET16b-11ZF construct, TnT reticulocyte lysate (Promega); label: 32P. Here is the method:
(§1) Gamma-satellite monomers from human chromosome X and Y were PCR amplified from genomic DNA, cloned into TA vector and sequenced before their analysis by electrophoretic mobility gel-shift assay (EMSA). Binding reactions were carried out in buffer containing standard PBS with 5 μM MgCl₂, 0.1 μM ZnSO4, 1 μM DTT, 0.1% NP40, and 10% glycerol in the presence of poly(deoxyinosinic-deoxy-CMP) and salmon sperm DNA. Reaction mixtures of 20 μL final volume were incubated for 30 minutes at room temperature and then analyzed on 5% nondenaturing gel using polyacrylamide gel electrophoresis (PAGE) in 0.5×TBE buffer. For EMSA with in vitro methylated DNA probes, treatment with the SssI-methylase was done as previously described for CTCF-binding fragments DMD4 and DMD7 of the H19 ICR (Kanduri et al., Curr. Biol., 10:853-856, 2000). The extent of methylation was verified by digestion overnight with Sau96I restriction endonuclease. Methylation interference analysis was carried out as described previously (Filippova et al., 1996; ibid).
Electrophoretic mobility shift assays (EMSA) were performed. A set of overlapping fragments corresponding to an 1′-mer of the human gamma 8, were radiolabeled and incubated with the in vitro translated 11 ZF DNA binding domain of the CTCF protein. Recombinant luciferase protein prepared by the same in vitro translation reaction was used as a negative control. […] The presence of CTCF-binding sites was also checked in the human alpha-satellite DNA array lacking anti-silencing (insulating) activity. None of 11 alpha-satellite monomers analyzed bound the CTCF protein in vitro.
(Mobility shift assays separate free from complexed probe on a gel.)

For data set [2], the target named is T1, CTCF 11 ZF DNA binding domain. In words: EMSA; among strongest binding; PBS, Mg, Zn, poly(dI-dC), room temperature; ~250 bp probe containing the monomer. Particulars: tags: pET16b-11ZF construct, TnT reticulocyte lysate (Promega); label: 32P. Here is the method:
as §1
(§2) Electrophoretic mobility shift assays (EMSA) were performed. A set of overlapping fragments corresponding to an 1′-mer of the human gamma 8, were radiolabeled and incubated with the in vitro translated 11 ZF DNA binding domain of the CTCF protein. […] None of 11 alpha-satellite monomers analyzed bound the CTCF protein in vitro.

In data set [3] the target is Luciferase (in vitro translated control) (UniProt P08659 P08659:1-550). Nature of the data set: EMSA; negative control lysate. Particulars: tags: Luciferase T7 control DNA (Promega); label: 32P. On the procedure: as §1, §2
Luciferase (in vitro translated control), sequence (P08659 whole entry, the tested form may be a part, one chain of several): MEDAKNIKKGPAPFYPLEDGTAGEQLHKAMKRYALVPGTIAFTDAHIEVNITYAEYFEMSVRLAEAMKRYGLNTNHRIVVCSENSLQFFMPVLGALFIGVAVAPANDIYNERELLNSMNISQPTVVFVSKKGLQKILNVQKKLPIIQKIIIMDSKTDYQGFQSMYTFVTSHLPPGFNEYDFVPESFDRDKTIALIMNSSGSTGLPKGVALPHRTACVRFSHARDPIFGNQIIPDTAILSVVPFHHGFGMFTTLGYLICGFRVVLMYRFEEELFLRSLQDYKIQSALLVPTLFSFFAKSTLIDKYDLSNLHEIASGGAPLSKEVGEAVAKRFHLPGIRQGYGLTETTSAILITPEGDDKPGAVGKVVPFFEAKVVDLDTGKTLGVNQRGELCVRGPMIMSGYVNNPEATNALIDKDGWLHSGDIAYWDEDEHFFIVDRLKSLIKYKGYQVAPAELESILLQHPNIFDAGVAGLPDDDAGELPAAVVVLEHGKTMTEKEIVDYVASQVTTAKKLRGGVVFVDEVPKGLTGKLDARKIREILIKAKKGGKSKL
Data set [4] addresses T1, CTCF 11 ZF DNA binding domain. Nature of the data set: EMSA; CpG methylation does not affect binding. Particulars: tags: pET16b-11ZF construct, TnT reticulocyte lysate (Promega); label: 32P. On the procedure:
as §1
To confirm in vitro mapping results, four guanine residues within the predicted core sequence were selectively mutated, as indicated in FIG. 12. […] To determine if CTCF binding is methylation-dependent, gamma-satellite 8 PCR fragments were methylated with a SssI methyltransferase. […]

The target is the same in data set [5]. In words: footprint; methylation interference on fragment 11: seven contact guanines (3 sense, 4 antisense); 55 bp core of 100 bp fragment printed. Particulars: tags: pET16b-11ZF construct, TnT reticulocyte lysate (Promega). Here is the method: as §1, with “Binding” for “Gamma-satellite monomers from human chromosome X and Y were PCR amplified from genomic DNA, cloned into TA vector and sequenced before their analysis by electrophoretic mobility gel-shift assay (EMSA). Binding”
To determine the contact guanine residues recognized by CTCF in gamma-satellite DNA, methylation interference assays (a method that identifies guanine residues in the CTCF binding site that make contact with CTCF zinc fingers) were conducted using a ³²P-labeled fragment of the gamma-satellite monomer (fragment #11). A strong interference of guanine methylation with CTCF-DNA binding was found in three and four guanine residues on sense and anti-sense strands, respectively (FIG. 5B). […]

Data set [6] shares this target. Nature of the data set: EMSA; mutation knocked down binding. Particulars: tags: pET16b-11ZF construct, TnT reticulocyte lysate (Promega). On the procedure:
as §1
To confirm in vitro mapping results, four guanine residues within the predicted core sequence were selectively mutated, as indicated in FIG. 12. […] To determine if CTCF binding is methylation-dependent, gamma-satellite 8 PCR fragments were methylated with a SssI methyltransferase. […] It is worth noting that in most previously reported cases, methylation prevents CTCF binding (Ohlsson et al., Trends Genet., 17:520-527, 2001).

Substitutions are numbered along the chain they refer to.

B1: gamma-satellite 8 fragment 10 (monomer 7) (dsDNA)
DNA 1: TGAAAACAGGGAGGCAGGGTGGCATGGCCAGGCCGCAGGGACTATGGTGGACATTGTGG
DNA 2: CCACAATGTCCACCATAGTCCCTGCGGCCTGGCCATGCCACCCTGCCTCCCTGTTTTCA
Turning to B1, in data set [1], the binding result was “binds”.

B2: gamma-satellite 8 fragment 5 (monomer 4) (dsDNA)
DNA 1: CAAAAACAAGGCCGCAGGGTGGCGTGGGCGGGCCGCAGGGACTCAGGTGGAAATTGTGG
DNA 2: CCACAATTTCCACCTGAGTCCCTGCGGCCCGCCCACGCCACCCTGCGGCCTTGTTTTTG
As to B2, the binding result in data set [1] is “binds”.

B3: gamma-satellite 8 fragment 8 (monomer 6) (dsDNA)
DNA 1: AGACAACAGGGCGGCTGGATGGCATGGGCCGATCGTAGGAACCCAGGGAGACATTGAGG
DNA 2: CCTCAATGTCTCCCTGGGTTCCTACGATCGGCCCATGCCATCCAGCCGCCCTGTTGTCT
For B3, the binding result in data set [1] is recorded as “binds”.

B4: gamma-satellite 8 fragment 11 (monomer 8) (dsDNA)
DNA 1: CGAAAATGGGGCCACTGGGTGGCCTGAACGAGCCAAAGGGACTCAGGGTGACACTGAGG
DNA 2: CCTCAGTGTCACCCTGAGTCCCTTTGGCTCGTTCAGGCCACCCAGTGGCCCCATTTTCG
With B4, the binding result in data set [2] is given as “binds”; in data set [3] it was “no binding”.

B5: SssI-methylated gamma-satellite 8 fragment (dsDNA)
DNA 1: B4 DNA 1
DNA 2: B4 DNA 2
modifications: 5mC at CpG (SssI)
In the case of B5, in data set [4], the binding result was “binds”.

B6: gamma-satellite 8 fragment 6 (monomer 5) (dsDNA)
DNA 1: CAAAAACAGTGCCGCAGTGTGGCCTGGGCGGGCCACAGGGACTCAGGGAGACGTTGAGG
DNA 2: CCTCAACGTCTCCCTGAGTCCCTGTGGCCCGCCCAGGCCACACTGCGGCACTGTTTTTG
With B6, the binding result in data set [1] was “binds”.

B7: gamma-satellite 8 monomer 8 WT-8 core (dsDNA)
DNA 1: CGAAAATGGGGCCACTGGGTGGCCTGAACGAGCCAAAGGGACTCAGGGTGACACT
DNA 2: AGTGTCACCCTGAGTCCCTTTGGCTCGTTCAGGCCACCCAGTGGCCCCATTTTCG
For B7, the binding result in data set [5] is “binds”.

B8: gamma-satellite 8 monomer 8 Mu3 (dsDNA)
DNA 1: B7 DNA 1 with C12T, C15T, G17A, C23T, C29T
DNA 2: B7 DNA 2 with G27A, G33A, C39T, G41A, G44A
With B8, the binding result in data set [6] is “no binding”.

B9: gamma-satellite 8 monomer 8 Mu2 (dsDNA)
DNA 1: B7 DNA 1 with G18A, C23T, C24T, C29T
DNA 2: B7 DNA 2 with G27A, G32A, G33A, C38T
For B9, the binding result in data set [6] is on record as “no binding”.

B10: gamma-satellite 8 monomer 8 Mu1 (dsDNA)
DNA 1: B7 DNA 1 with G17A, G18A, G19A, C23T
DNA 2: B7 DNA 2 with G33A, C37T, C38T, C39T
With B10, in data set [6], the binding result was “no binding”.
